# Test results reported in PMC6954390, “Negative cooperativity between Gemin2 and RNA provides insights into RNA selection and the SMN complex's release in snRNP assembly” (Nucleic Acids Research, 2019).
# T1: Gemin2ΔN39 (human, UniProt O14893 40-280)
# T1 construct: Gemin2, human, N-terminal 39 residues deleted (residues 40-280 left); also called Gemin2 residues 40–280; source: coexpressed with SMN_(Ge2BD) (pCDF-HT-Gemin2ΔN39); not shown: His6, N-terminal, cleaved
# T1 sequence (looked up): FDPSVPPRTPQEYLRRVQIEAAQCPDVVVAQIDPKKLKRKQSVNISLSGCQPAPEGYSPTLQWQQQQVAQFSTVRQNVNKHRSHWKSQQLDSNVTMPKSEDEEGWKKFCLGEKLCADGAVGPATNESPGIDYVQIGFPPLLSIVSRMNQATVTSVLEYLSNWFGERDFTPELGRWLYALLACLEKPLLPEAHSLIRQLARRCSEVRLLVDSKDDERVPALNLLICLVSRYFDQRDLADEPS
# T2: Gemin2 (full-length) (human, UniProt O14893 1-280)
# T2 construct: Gemin2, human, full length; source: coexpressed with SMN_(Ge2BD) (pCDF-HT-Gemin2); not shown: His6, N-terminal, cleaved
# T2 sequence (looked up): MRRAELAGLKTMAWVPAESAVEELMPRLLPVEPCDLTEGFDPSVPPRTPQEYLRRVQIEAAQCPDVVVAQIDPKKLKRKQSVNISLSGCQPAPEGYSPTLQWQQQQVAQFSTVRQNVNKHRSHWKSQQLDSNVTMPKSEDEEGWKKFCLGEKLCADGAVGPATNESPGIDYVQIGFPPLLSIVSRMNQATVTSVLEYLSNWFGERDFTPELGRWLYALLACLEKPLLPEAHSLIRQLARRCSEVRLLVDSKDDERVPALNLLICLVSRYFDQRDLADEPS
# How the values were obtained:
# Gemin2ΔN39 = target: T1, Gemin2ΔN39; assay: crystal structure; Complexes A, B and C; hanging-drop vapor diffusion at 20°C, 1-6% PEG8000, 100 mM Tris-HCl pH 7.5-8.2; solved by molecular replacement with PDB 3S6N; settings: both partners purified
# Gemin2 (full-length) = target: T2, Gemin2 (full-length); assay: as above; settings: both partners purified
binder,measurement,setting,value
"GQSDDSDIWDDTALIKAYDKAVASFKHALKNGDICET (domain or fragment, human, UniProt Q16637 26-62, looked up, also called SMN(26-62); SMN (26–62) peptide; source: coexpressed with Gemin2 or Gemin2ΔN39 (pET21-HMT-SMN_(Ge2BD)); not shown: His6, N-terminal, cleaved; MBP, N-terminal, cleaved) [SMN_(Ge2BD), SMN residues 26–62]",binding result,Gemin2ΔN39,binds
same,binding result,Gemin2 (full-length),binds
